From publication PMC1088972, “Engineering a Dimeric Caspase-9: A Re-evaluation of the Induced Proximity Model for Caspase Activation” (PLoS Biology, 2005) come the findings set out here.

Positions count from the first letter of the chain named. Names may count otherwise.

Series [1] concerns the molecule itself. As to the kind of experiment: SEC; gel filtration of WT and engineered caspase-9 (Δ139, residues 140-416); unpublished data.
Series [2] deals with the molecule itself. In words: crystal structure; hanging-drop vapor diffusion, 100 mM MES pH 6.0, 5% PEG 5000 monomethyl ether, 3% tacsimate; space group C2; two molecules of the dimer in the asymmetric unit; molecular replacement.

B1: engineered (dimeric) caspase-9 (Δ139, residues 140-416) (domain or fragment, UniProt P55211 140-416, looked up)
chain: GALESLRGNADLAYILSMEPCGHCLIINNVNFCRESGLRTRTGSNIDCEKLRRRFSSLHFMVEVKGDLTAKKMVLALLELAQQDHGALDCCVVVILSHGCQASHLQFPGAVYGTDGCPVSVEKIVNIFNGTSCPSLGGKPKLFFIQACGGEQKDHGFEVASTSPEDESPGSNPEPDATPFQEGLRTFDQLDAISSLPTPSDIFVSYSTFPGFVSWRDPKSGSWYVETLDDIFEQWAHSEDLQSLLLRVANAVSVKGIYKQMPCIVSMLRKKLFFKTS
notes: caspase-9, residues 140-416; prodomain and flexible linker removed; five residues of strand beta6 replaced by those of caspase-3 (Cys264-Ile-Val-Ser-Met268); Predicted dimer mass printed as 62,746 Da; written as one chain; also called engineered caspase-9 (Δ139); Δ139 dimeric caspase-9; source: E. coli BL21(DE3), vector pET-21b, purified (Ni-NTA, anion exchange Source-15Q, gel filtration …)
In the case of B1, in series [1], the “stoichiometry N” value is 2.

B2: dimeric caspase-9 (residues 140-416, C287S) (domain or fragment, UniProt P55211 140-416, looked up)
chain: B1 chain with C148S
notes: caspase-9, residues 140-416; five residues of strand beta6 replaced by those of caspase-3; catalytic Cys287 mutated to Ser; Crystallised form; the model holds residues 140-288 and 335-416 (chains A, C) and 140-289 and 337-416 (chains B, D); also called dimeric caspase-9 (C287S); source: E. coli BL21(DE3), vector pET-21b, purified (Ni-NTA, anion exchange Source-15Q, gel filtration Superdex-200)
With B2, in series [2], the binding result is given as “binds”.

As a reminder, the stoichiometry N is a count of units in the complex or per binding partner.
